Assay results: article PMC5499577 (Nucleic Acids Research, 2017)
Residue numbers refer to the chain shown, from its start. In names and notes the source's numbering stands. Read-outs that look alike come from different tables or passages of the source.

B1: LI Int with the coiled-coil motif deleted, IntΔCC (Δ342-416) (enzyme, Listeria innocua (prophage), UniProt Q928V6 1-452, looked up)
chain: MKAAIYIRVSTQEQVENYSIQAQTEKLTALCRSKDWDVYDTFIDGGYSGSNMNRPALNEMLSKLHEIDAVVVYRLDRLSRSQKDTITLIEEYFLKNNVEFVSLSETLDTSSPFGRAMIGILSVFAQLERETIRDRMVMGKIKRIEAGLPLTTAKGRTFGYDVIDTKLYINEEEAKQLRLIYDIFEEEQSITFLQKRLKKLGFKVRTYNRYNNWLTNDLYCGYVSYKDKVHVKGIHEPIISEEQFYRVQEIFSRMGKNPNMNKESASLLNNLVVCSKCGLGFVHRRKDTVSRGKKYHYRYYSCKTYKHTHELEKCGNKIWRADKLEELIIDRVNNYSFASRNATVDFNSLEFREKQLYLKSLINKIYIDGEQVTIEWL
B2: LI Int CTD Y369A (133-452) (domain or fragment, Listeria innocua (prophage), UniProt Q928V6 133-452, looked up)
chain: RDRMVMGKIKRIEAGLPLTTAKGRTFGYDVIDTKLYINEEEAKQLRLIYDIFEEEQSITFLQKRLKKLGFKVRTYNRYNNWLTNDLYCGYVSYKDKVHVKGIHEPIISEEQFYRVQEIFSRMGKNPNMNKESASLLNNLVVCSKCGLGFVHRRKDTVSRGKKYHYRYYSCKTYKHTHELEKCGNKIWRADKLEELIIDRVNNYSFASRNIDKEDELDSLNEKLKIEHAKKKRLFDLAINGSYEVSELDSMMNDIDAQINYYEAQIEANEELKKNKKIQENLADLATVDFNSLEFREKQLYLKSLINKIYIDGEQVTIEWL
B3: LI Int CTD K362A (133-452) (domain or fragment, Listeria innocua (prophage), UniProt Q928V6 133-452, looked up)
chain: B2 chain with K230A, A237Y
B4: LI Int carboxy-terminal domain, CTD (133-452) (domain or fragment, Listeria innocua (prophage), UniProt Q928V6 133-452, looked up)
chain: B2 chain with A237Y
B5: LI Int isolated coiled-coil domain CC-III (349-400) (domain or fragment, Listeria innocua (prophage), UniProt Q928V6 349-400, looked up)
chain: DSLNEKLKIEHAKKKRLFDLYINGSYEVSELDSMMNDIDAQINYYEAQIEAN
B6: His6Flag-Smt3-CC-I fusion of the LI Int coiled-coil domain (345-405) (domain or fragment, Listeria innocua (prophage), UniProt Q928V6 345-405, looked up)
chain: EDELDSLNEKLKIEHAKKKRLFDLYINGSYEVSELDSMMNDIDAQINYYEAQIEANEELKK
B7: Listeria innocua integrase (LI Int), wild type, full length (enzyme, Listeria innocua (prophage), UniProt Q928V6 1-452, looked up)
chain: MKAAIYIRVSTQEQVENYSIQAQTEKLTALCRSKDWDVYDTFIDGGYSGSNMNRPALNEMLSKLHEIDAVVVYRLDRLSRSQKDTITLIEEYFLKNNVEFVSLSETLDTSSPFGRAMIGILSVFAQLERETIRDRMVMGKIKRIEAGLPLTTAKGRTFGYDVIDTKLYINEEEAKQLRLIYDIFEEEQSITFLQKRLKKLGFKVRTYNRYNNWLTNDLYCGYVSYKDKVHVKGIHEPIISEEQFYRVQEIFSRMGKNPNMNKESASLLNNLVVCSKCGLGFVHRRKDTVSRGKKYHYRYYSCKTYKHTHELEKCGNKIWRADKLEELIIDRVNNYSFASRNIDKEDELDSLNEKLKIEHAKKKRLFDLYINGSYEVSELDSMMNDIDAQINYYEAQIEANEELKKNKKIQENLADLATVDFNSLEFREKQLYLKSLINKIYIDGEQVTIEWL

How the values were obtained:
AUC [1] = target: the molecule itself; assay: AUC
crystal structure = target: the molecule itself; assay: crystal structure
AUC [2] = target: the molecule itself; assay: AUC; remark: listed apart in the source

Row | Protein | Kd (AUC [1]) [µM] | stoichiometry N (AUC [1]) | binding result (crystal structure) | Kd (AUC [2]) [µM] | stoichiometry N (AUC [2])
1 | B1 | 5.7 | 2 | – | – | –
2 | B2 | 289 | 2 | – | – | –
3 | B3 | 45.2 | 2 | – | – | –
4 | B4 | 18.8 | 2 | – | – | –
5 | B5 | – | – | binds | – | –
6 | B6 | – | – | – | 20.1 | 2
7 | SLNEKLKIEHAKKKRLFDLYINGSYEVSELDSMMNDIDAQINYYEAQIEA (domain or fragment, Listeria innocua (prophage), UniProt Q928V6 350-399, looked up) [LI Int isolated coiled-coil domain CC-II (350-399)] | – | – | binds | – | –
8 | B7 | ≤ 0.032 | 2 | – | – | –
